{"source": "IntAct's records for PubMed 25350732", "parents": {"B1": {"name": "Probable peptidoglycan glycosyltransferase FtsW (Caulobacter crescentus), B8H092 (parent)", "chain": "MASNATHAFARTDRTALGLWWWTTDRWLLGATALLVTLGMLLSFASSPAAAQRIGIDDQFHFALRMCFFATASSVLMLITSMLSPRDIRRAAFFIYLGAIAVMIALPFIGHNAKGATRWLQFAGFTLQPSEFMKPALIVLVSWMFAEGQKGEGVPGVSIAFLLYFIAVALLLIQPDVGQTVLITIAFGAAFWMAGVPISWIMGLGGVALAGLGSTYFLFDHVHARVQKFLSPDQADTHQITRAAEAIRAGGLFGRGPGEGVMKRHVPDLHTDFIYSVAAEEYGLIFSWSLIGLFAFVVVRGLYKAMKLNDPFEQVAAAGLFVLVGQQALINIAVNLNMIPTKGMTLPFISYGGSSMLAMGLTLGMALALLRKRPGAYGASGEFGFGRADA", "partner": "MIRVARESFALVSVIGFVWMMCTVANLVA"}}}
{"variants_of": "B1", "conditions": "with sida_cauvn sidA"}
{"variant": "A31K", "effect of a mutation on the interaction": "disrupting interaction strength"}
